Measurements published in article PMC10612264, “A novel transcriptional repressor specifically regulates xylanase gene 1 in Trichoderma reesei”.
Where a chain is given by its changes, count along the chain named.

How the values were obtained:
[1] = target: T1, XTR1 DBD (Trichoderma reesei QM9414) (UniProt G0RH11); assay: EMSA; conditions: EMSA: 10 mM Tris pH 7.5, 50 mM KCl, 1 mM DTT, 150 ng DNA, 20 C 30 min, 6% native PAGE at 4 C in 0.5x TBE, EtBr; footprinting: 180 ng DNA, 25 C 30 min
T1 sequence: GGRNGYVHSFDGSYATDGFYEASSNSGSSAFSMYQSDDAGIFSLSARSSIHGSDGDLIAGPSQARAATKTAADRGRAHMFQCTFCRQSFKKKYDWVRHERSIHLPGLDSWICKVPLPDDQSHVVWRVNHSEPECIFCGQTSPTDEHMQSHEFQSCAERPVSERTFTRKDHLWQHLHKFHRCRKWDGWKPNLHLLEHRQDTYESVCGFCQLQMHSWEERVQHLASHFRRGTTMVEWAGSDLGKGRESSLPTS

[2] = target: T2, XYR1 DBD (Trichoderma reesei) (UniProt G0RLE8); assay: EMSA; conditions: EMSA: 10 mM Tris pH 7.5, 50 mM KCl, 1 mM DTT, 150 ng DNA, 20 C 30 min, 6% native PAGE at 4 C in 0.5x TBE, EtBr; footprinting: 180 ng DNA, 25 C 30 min
T2 sequence: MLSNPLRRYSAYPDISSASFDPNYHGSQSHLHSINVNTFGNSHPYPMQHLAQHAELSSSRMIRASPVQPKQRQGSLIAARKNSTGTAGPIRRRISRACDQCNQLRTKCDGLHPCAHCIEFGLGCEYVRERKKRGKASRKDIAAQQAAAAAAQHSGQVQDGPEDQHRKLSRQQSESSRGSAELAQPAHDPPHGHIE

XTR1 DBD [3] = target: T3, XTR1 DBD (Trichoderma reesei QM9414, UniProt G0RH11 285-535); assay: EMSA; EMSA: 10 mM Tris pH 7.5, 50 mM KCl, 1 mM DTT, 150 ng DNA, 20 C 30 min, 6% native PAGE at 4 C in 0.5x TBE, EtBr; footprinting: 180 ng DNA, 25 C 30 min; conditions: protein: recombinant; tags: His tag (pET22b NdeI/XhoI, Ni-NTA); label: none (EtBr stain)
T3 sequence: T1 sequence

XTR1 DBD [4] = target: T3, XTR1 DBD; assay: EMSA; binding increased vs wild type; EMSA: 10 mM Tris pH 7.5, 50 mM KCl, 1 mM DTT, 150 ng DNA, 20 C 30 min, 6% native PAGE at 4 C in 0.5x TBE, EtBr; footprinting: 180 ng DNA, 25 C 30 min; conditions: protein: recombinant; tags: His tag (pET22b NdeI/XhoI, Ni-NTA); label: none (EtBr stain)

For “AACTAGGACCGGCTTGTGTCGATATTGCGGGTGGCGTTCAATCTATTCCGGCACTCCTATGCCGTTTGATCCGATACCTGGAGGGCGTGCTTTAGGCAAAATGCC (double strand) [Pxyn1 (-321 to -217)]”, the binding [1] was “binds” and the binding [2] was “binds”.

With “AACTAGGACCGGCTTGTGTCGATATTGCGGGTGGCGTTCAATCTATTCCGGCACTCCTATGCCGTTTGATCCGATACCTGGAGGGCGTGCTTTAGGCAAAATGCCAAGCTTCGAGGATACTGTACGAGCCGCTTTCAACCTCACTTGATGATGTCTGAGTTTCATCAAGAGAATTGAAGTCAAAGCTCAAATCATGATGTGAAGAGGTTTTGAATGTGGAAGAATTCTGCATA (double strand) [Pxyn1 (-321 to -91)]” the binding [1] was “binds”.

In the case of “AAGCTTCGAGGATACTGTACGAGCCGCTTTCAACCTCACTTGATGATGTCTGAGTTTCATCAAGAGAATTGAAGTCAAAGCTCAAATCATGATGTGAAGAGGTTTTGAATGTGGAAGAATTCTGCATA (double strand) [Pxyn1 (-217 to -91)]”, the binding [1] is reported as “no binding”.

B1: Pxyn1 (-321 to -217) GG2-3 to AA (dsDNA)
DNA 1: AACTAGGACCGGCTTGTGTCGATATTGCGGGTGGCGTTCAATCTATTCCGGCACTCCTATGCCGTTTGATCCGATACCTAAAGGGCGTGCTTTAGGCAAAATGCC
DNA 2: GGCATTTTGCCTAAAGCACGCCCTTTAGGTATCGGATCAAACGGCATAGGAGTGCCGGAATAGATTGAACGCCACCCGCAATATCGACACAAGCCGGTCCTAGTT
B1: binds (XTR1 DBD [3]).

B2: Pxyn1 (-321 to -217) GGG5-7 to AAA (dsDNA)
DNA 1: B1 DNA 1 with A80G, A81G, G83A, G84A, G85A
DNA 2: B1 DNA 2 with C21T, C22T, C23T, T25C, T26C
B2: binds (XTR1 DBD [3]).

B3: Pxyn1 (-321 to -217) CGTGC8-12 to TTGTT (dsDNA)
DNA 1: B1 DNA 1 with A80G, A81G, C86T, G87T, T88G, G89T, C90T
DNA 2: B1 DNA 2 with G16A, C17A, A18C, C19A, G20A, T25C, T26C
B3: no binding (XTR1 DBD [3]).

B4: Pxyn1 (-321 to -217) 3' TTT to AAA (dsDNA)
DNA 1: B1 DNA 1 with A80G, A81G, T91G, T92G, T93G
DNA 2: B1 DNA 2 with A13C, A14C, A15C, T25C, T26C
B4: binds (XTR1 DBD [4]).
